Read-outs that look alike come from different tables or passages of the source. Where a SMILES comes first, the peptide text is derived from it. Where no end group is shown, it is not given here. Side-chain parts run from the residue outwards. [ ]: non-standard residue; d: D form. The star is where a group is joined. DOTA = O=C(O)CN1CCN(CC(=O)O)CCN(CC(=O)*)CCN(CC(=O)O)CC1; hArg = N=C(N)NCCCC[C@H](N)C(=O)O; Dab = NCC[C@H](N)C(=O)O; Ahx = NCCCCCC(=O)O
Experiments:
[1] = type: physicochemical; conditions: pH 7.4
Procedure: The lipophilicity (L) of tested radiocompounds, defined as the decimal logarithm (logP) of the partition coefficient (P) of the compound between the two immiscible phases, was determined in the system PBS solution (aqueous phase, polar phase, pH 7.4) and n-octanol (organic, non-polar phase) according to the following formula: L=logP=logAo/Aw where Ao —organic phase radioactivity; Aw —aqueous phase radioactivity. Radioactivity of both phases, resulting from the concentration of the tested radiocompound in each of them, was determined by measuring the gamma radiation with a Wizard counter in three independent experiments. Before starting the research, both liquid phases were saturated with each other to avoid errors resulting from the mutual solubility of both liquids. The partition coefficient (P) result is shown as the mean ± SD. After the end of the experiment, we performed RP-HPLC analysis of the aqueous phase to confirm the tested radioconjugate remained intact during the experiment.

[2] = type: in vitro ADME; conditions: human, serum
Procedure: Stability studies of the ^68Ga-1, ^177Lu-1, ^68Ga-2, and ^177Lu-2 radioconjugates in human serum (HS) were performed according to the following procedure: into a vial containing 900 µL of HS we added 100 µL of the tested radioconjugate and incubated the mixture at 37 °C. After the specified incubation times (10 min–4.5 h for ^68Ga-radiocompounds and 10 min–4 days for ^177Lu-radiocompounds), we withdrew the aliquots, mixed with ethanol to precipitate the proteins, and centrifuged (14,000 rpm, 5–15 min) to separate the protein compounds from the supernatant. The gamma radioactivity of the obtained precipitate and supernatant was then measured using a Wizard detector. Using the formula below, the amount of radioconjugate remaining in the supernatant (and also bound by serum protein components) was calculated. ∑ liquid phase radioactivity/∑ liquid phase radioactivity+∑ percipitate radioactivity ×100% We also analyzed the supernatant at each time by RP-HPLC in System 3 with gamma detection for ^68Ga-1 and ^177Lu-1 and System 4 with gamma detection for ^68Ga-2 and ^177Lu-2 to check whether the studied radiocompound remained unchanged during the experiment.

VEGF-A165/NRP-1 complex = conditions: read-out: IC50 (VEGF-A165 binding with NRP-1); cited from earlier work
[3] = cited from earlier work

Compound	logP ± SD [1]	IC50 (VEGF-A165/NRP-1 complex) [µM]	also measured
CC(C)C[C@H](NC(=O)[C@H](Cc1c[nH]c2ccccc12)NC(=O)[C@@H](NC(=O)[C@H](C)NC(=O)CCCCCNC(=O)CN1CCN(CC(=O)O)CCN(CC(=O)O)CCN(CC(=O)O)CC1)[C@@H](C)O)C(=O)N1CCC[C@H]1C(=O)N1CCC[C@H]1C(=O)N[C@@H](CCCNC(=N)N)C(=O)O [^68Ga-1, [^68Ga]Ga-DOTA-Ahx-A7R, metal not drawn] ({DOTA-Ahx}-ATWLPPR-OH)	−3.92 ± 0.03		
N=C(N)NCCCC[C@H](N)C(=O)NCCCC[C@H](N)C(=O)N[C@@H](CCNC(=O)CCCCCNC(=O)CN1CCN(CC(=O)O)CCN(CC(=O)O)CCN(CC(=O)O)CC1)C(=O)N1CCC[C@H]1C(=O)N[C@@H](CCCNC(=N)N)C(=O)O [^68Ga-2, [^68Ga]Lys(hArg)-Dab(Ahx-DOTA-Ga)-Pro-Arg, metal not drawn] (H-K(hArg)[Dab]([Ahx-DOTA])PR-OH)	−4.57 ± 0.05		
CC(C)C[C@H](NC(=O)[C@H](Cc1c[nH]c2ccccc12)NC(=O)[C@@H](NC(=O)[C@H](C)NC(=O)CCCCCNC(=O)CN1CCN(CC(=O)O)CCN(CC(=O)O)CCN(CC(=O)O)CC1)[C@@H](C)O)C(=O)N1CCC[C@H]1C(=O)N1CCC[C@H]1C(=O)N[C@@H](CCCNC(=N)N)C(=O)O [^177Lu-1, [^177Lu]Lu-DOTA-Ahx-A7R, metal not drawn] ({DOTA-Ahx}-ATWLPPR-OH)	−3.40 ± 0.14		radioconjugate remaining in HS sample (in words) ([2]; 96 h): still visible
N=C(N)NCCCC[C@H](N)C(=O)NCCCC[C@H](N)C(=O)N[C@@H](CCNC(=O)CCCCCNC(=O)CN1CCN(CC(=O)O)CCN(CC(=O)O)CCN(CC(=O)O)CC1)C(=O)N1CCC[C@H]1C(=O)N[C@@H](CCCNC(=N)N)C(=O)O [^177Lu-2, [^177Lu]Lys(hArg)-Dab(Ahx-DOTA-Lu)-Pro-Arg, metal not drawn] (H-K(hArg)[Dab]([Ahx-DOTA])PR-OH)	−3.75 ± 0.08		radioconjugate remaining in HS sample (in words) ([2]; 24 h): only traces of radioconjugate were present
ATWLPPR [A7R]		5.9	
Lys(hArg)-Dab-Pro-Arg		0.2	stability half-life in human serum [3]: ~48 h; half-life ([3]; peptidomimetic concentration 0.9 µmol/mL, UV/VIS detection): 41 h

— paper PMC8779334, “Synthesis, Physicochemical and Biological Study of Gallium-68- and Lutetium-177-Labeled VEGF-A165/NRP-1 Complex Inhibitors Based on Peptide A7R and Branched Peptidomimetic” (Pharmaceutics, 2022)
